Experimental data published in PMC6080939 (The Journal of Cell Biology, 2018).
Read-outs that look alike come from different tables or passages of the source.

B1: VCAM-1 (adsorbed on the surface for AFM single-cell force spectroscopy) (ligand, human, UniProt P19320 25-698, looked up)
chain: FKIETTPESRYLAQIGDSVSLTCSTTGCESPFFSWRTQIDSPLNGKVTNEGTTSTLTMNPVSFGNEHSYLCTATCESRKLEKGIQVEIYSFPKDPEIHLSGPLEAGKPITVKCSVADVYPFDRLEIDLLKGDHLMKSQEFLEDADRKSLETKSLEVTFTPVIEDIGKVLVCRAKLHIDEMDSVPTVRQAVKELQVYISPKNTVISVNPSTKLQEGGSVTMTCSSEGLPAPEIFWSKKLDNGNLQHLSGNATLTLIAMRMEDSGIYVCEGVNLIGKNRKEVELIVQEKPFTVEISPGPRIAAQIGDSVMLTCSVMGCESPSFSWRTQIDSPLSGKVRSEGTNSTLTLSPVSFENEHSYLCTVTCGHKKLEKGIQVELYSFPRDPEIEMSGGLVNGSSVTVSCKVPSVYPLDRLEIELLKGETILENIEFLEDTDMKSLENKSLEMTFIPTIEDTGKALVCQAKLHIDDMEFEPKQRQSTQTLYVNVAPRDTTVLVSPSSILEEGSSVNMTCLSQGFPAPKILWSRQLPNGELQPLSENATLTLISTKMEDSGVYLCEGINQAGRSRKEVELIIQVTPKDIKLTAFPSESVKEGDTVIISCTCGNVPETWIILKKKAETGDTVLKSIDGAYTIRKAQLKDAGVYECESKNKVGSQLRSLTLDVQGRENNKDYFSPE

Key:
Test in all cases: AFM single-cell force spectroscopy
[1] = molecular target: integrin α4β7 (human (endogenous in RPMI 8866–CXCR3)) (UniProt P13612)
integrin α4β7 (human (endogenous in RPMI 8866–CXCR3)), sequence (P13612 34-1032, chain 1 of 2): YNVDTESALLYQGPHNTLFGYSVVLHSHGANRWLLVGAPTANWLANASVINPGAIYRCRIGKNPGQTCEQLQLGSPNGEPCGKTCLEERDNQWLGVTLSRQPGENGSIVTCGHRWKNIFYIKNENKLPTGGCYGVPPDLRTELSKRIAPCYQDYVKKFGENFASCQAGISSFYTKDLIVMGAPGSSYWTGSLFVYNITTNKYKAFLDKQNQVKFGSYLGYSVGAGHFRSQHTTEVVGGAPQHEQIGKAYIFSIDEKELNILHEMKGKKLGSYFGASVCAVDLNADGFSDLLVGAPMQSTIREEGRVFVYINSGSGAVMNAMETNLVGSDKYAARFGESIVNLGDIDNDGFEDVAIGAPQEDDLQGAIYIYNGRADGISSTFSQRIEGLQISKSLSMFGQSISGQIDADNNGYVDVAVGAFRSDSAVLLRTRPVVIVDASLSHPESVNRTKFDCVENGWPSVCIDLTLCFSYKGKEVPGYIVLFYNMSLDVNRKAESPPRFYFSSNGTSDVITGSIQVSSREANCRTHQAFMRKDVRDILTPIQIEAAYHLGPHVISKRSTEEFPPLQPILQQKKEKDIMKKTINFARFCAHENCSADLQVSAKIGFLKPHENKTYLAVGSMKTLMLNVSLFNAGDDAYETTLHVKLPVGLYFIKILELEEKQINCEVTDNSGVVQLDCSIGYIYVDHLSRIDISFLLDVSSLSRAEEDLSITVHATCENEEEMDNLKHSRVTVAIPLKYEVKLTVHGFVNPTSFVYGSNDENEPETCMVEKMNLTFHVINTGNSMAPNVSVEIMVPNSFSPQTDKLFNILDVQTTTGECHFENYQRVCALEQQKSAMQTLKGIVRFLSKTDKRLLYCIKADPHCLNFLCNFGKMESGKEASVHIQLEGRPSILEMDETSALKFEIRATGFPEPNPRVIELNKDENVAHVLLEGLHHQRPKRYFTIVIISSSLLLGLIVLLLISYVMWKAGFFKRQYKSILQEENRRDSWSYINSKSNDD
integrin α4β7 (human (endogenous in RPMI 8866–CXCR3)), sequence (P26010 20-798, chain 2 of 2, further chain): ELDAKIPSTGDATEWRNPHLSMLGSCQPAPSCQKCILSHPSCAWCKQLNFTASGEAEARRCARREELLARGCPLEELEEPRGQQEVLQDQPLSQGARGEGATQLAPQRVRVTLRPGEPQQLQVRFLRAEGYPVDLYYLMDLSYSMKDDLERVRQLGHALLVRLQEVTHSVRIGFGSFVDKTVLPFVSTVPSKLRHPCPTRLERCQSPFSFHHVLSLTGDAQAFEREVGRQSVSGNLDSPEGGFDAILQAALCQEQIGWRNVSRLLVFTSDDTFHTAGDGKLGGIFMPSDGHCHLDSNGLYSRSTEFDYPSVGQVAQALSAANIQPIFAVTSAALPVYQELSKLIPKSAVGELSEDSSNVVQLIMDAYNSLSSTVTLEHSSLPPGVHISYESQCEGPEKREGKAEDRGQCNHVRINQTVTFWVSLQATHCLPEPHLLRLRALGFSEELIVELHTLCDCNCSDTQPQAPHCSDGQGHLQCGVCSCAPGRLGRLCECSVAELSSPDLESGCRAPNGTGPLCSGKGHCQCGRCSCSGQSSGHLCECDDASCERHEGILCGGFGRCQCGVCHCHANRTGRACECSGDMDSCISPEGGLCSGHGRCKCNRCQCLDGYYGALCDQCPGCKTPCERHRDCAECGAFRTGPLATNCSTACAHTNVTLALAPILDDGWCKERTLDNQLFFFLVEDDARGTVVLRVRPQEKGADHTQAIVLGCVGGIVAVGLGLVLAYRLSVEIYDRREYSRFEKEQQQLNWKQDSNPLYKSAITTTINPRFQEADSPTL

[2] = molecular target: integrin α4β7 (human (endogenous in RPMI 8866–CXCR3)) (UniProt P13612); remark: listed apart in the source
[3] = molecular target: integrin α4β7 (human (endogenous in RPMI 8866–CXCR3)) (UniProt P13612); remark: listed apart in the source
[4] = molecular target: integrin α4β7 (human (endogenous in RPMI 8866–CXCR3)) (UniProt P13612); remark: listed apart in the source
[5] = molecular target: integrin α4β7 (human (endogenous in RPMI 8866–CXCR3)) (UniProt P13612); remark: listed apart in the source
[6] = molecular target: integrin α4β7 (human (endogenous in RPMI 8866–CXCR3)) (UniProt P13612); remark: listed apart in the source
integrin α4β7 [7] = molecular target: T1, integrin α4β7 (human (endogenous in RPMI 8866–CXCR3), UniProt P13612 34-1032; P26010 20-798)
T1 sequence (P13612 34-1032, chain 1 of 2): as the sequence (P13612 34-1032, chain 1 of 2) above
T1 sequence (P26010 20-798, chain 2 of 2): as the sequence (P26010 20-798, chain 2 of 2, further chain) above

integrin α4β7 [8] = molecular target: T1, integrin α4β7; remark: listed apart in the source
integrin α4β7 [9] = molecular target: T1, integrin α4β7; remark: listed apart in the source

| Molecule | koff [1] | adhesion frequency [2] | koff [3] | adhesion frequency [4] | koff [4] | single-bond unbinding force [4] | adhesion frequency [5] | single-bond unbinding force [6] | koff (integrin α4β7 [7]) | koff (integrin α4β7 [8]) | koff (integrin α4β7 [9]) |
| --- | --- | --- | --- | --- | --- | --- | --- | --- | --- | --- | --- |
| MAdCAM-1 (adsorbed on the surface for AFM single-cell force spectroscopy) (from UniProt Q13477 19-382) (ligand) | 1.17 s⁻¹ | 25% | 0.4 s⁻¹ | 31% | 1.03 s⁻¹ | 35 to 80 pN | 55% | 32 pN | – | – | – |
| B1 | – | – | – | – | – | – | – | – | 1.58 s⁻¹ | 1.75 s⁻¹ | 0.83 s⁻¹ |
